From US20240254222A1 (Bayer, published 2024)

T1: Sema3B (R&D Systems) (Homo sapiens (Human), UniProt Q13214 25-749)
T1 sequence: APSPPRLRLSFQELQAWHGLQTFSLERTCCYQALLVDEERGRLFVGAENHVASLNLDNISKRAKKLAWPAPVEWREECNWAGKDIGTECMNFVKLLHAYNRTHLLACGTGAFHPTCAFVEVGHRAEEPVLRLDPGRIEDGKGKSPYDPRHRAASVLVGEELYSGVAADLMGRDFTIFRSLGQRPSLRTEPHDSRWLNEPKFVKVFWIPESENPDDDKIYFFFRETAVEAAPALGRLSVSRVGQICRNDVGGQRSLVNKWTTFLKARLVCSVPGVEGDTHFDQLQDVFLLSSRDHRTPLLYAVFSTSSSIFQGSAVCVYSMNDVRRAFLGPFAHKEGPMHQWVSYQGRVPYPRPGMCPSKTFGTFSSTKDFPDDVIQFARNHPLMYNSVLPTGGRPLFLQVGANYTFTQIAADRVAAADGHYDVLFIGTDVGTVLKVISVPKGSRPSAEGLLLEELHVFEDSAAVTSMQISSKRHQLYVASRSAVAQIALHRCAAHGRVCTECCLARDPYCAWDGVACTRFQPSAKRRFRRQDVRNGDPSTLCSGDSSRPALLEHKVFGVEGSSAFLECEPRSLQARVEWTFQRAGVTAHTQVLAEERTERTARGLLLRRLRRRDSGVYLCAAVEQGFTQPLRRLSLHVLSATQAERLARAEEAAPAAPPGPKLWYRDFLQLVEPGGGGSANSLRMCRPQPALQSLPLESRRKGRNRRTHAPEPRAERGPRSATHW

T2: Sema3E (R&D Systems) (Homo sapiens (Human), UniProt O15041 26-775)
T2 sequence: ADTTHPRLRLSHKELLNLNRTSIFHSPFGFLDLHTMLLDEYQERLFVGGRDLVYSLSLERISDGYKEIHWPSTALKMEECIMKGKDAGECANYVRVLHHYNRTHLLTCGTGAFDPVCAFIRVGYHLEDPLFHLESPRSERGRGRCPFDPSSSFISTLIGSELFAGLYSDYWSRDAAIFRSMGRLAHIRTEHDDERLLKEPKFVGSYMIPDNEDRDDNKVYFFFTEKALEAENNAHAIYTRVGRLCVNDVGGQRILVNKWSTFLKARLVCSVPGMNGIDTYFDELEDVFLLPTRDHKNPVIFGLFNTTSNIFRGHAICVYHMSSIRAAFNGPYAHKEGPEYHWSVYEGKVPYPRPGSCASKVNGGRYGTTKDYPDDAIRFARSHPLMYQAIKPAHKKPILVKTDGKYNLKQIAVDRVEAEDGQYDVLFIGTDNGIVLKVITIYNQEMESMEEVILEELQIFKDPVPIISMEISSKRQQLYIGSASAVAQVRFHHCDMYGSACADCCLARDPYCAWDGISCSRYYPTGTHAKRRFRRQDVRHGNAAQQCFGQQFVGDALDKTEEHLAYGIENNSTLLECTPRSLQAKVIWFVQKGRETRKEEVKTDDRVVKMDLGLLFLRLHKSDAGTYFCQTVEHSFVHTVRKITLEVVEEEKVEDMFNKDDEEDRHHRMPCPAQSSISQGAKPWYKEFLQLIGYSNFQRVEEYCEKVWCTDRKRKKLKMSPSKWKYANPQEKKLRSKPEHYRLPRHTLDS

T3: Mouse Semaphorin3A-Fc (R&D Systems), TPP-13357 (mouse, UniProt O08665 21-747)
T3 construct: range 21-747; R&D Systems 5926-S3; also called mouse Sema3A-Fc
T3 sequence (looked up): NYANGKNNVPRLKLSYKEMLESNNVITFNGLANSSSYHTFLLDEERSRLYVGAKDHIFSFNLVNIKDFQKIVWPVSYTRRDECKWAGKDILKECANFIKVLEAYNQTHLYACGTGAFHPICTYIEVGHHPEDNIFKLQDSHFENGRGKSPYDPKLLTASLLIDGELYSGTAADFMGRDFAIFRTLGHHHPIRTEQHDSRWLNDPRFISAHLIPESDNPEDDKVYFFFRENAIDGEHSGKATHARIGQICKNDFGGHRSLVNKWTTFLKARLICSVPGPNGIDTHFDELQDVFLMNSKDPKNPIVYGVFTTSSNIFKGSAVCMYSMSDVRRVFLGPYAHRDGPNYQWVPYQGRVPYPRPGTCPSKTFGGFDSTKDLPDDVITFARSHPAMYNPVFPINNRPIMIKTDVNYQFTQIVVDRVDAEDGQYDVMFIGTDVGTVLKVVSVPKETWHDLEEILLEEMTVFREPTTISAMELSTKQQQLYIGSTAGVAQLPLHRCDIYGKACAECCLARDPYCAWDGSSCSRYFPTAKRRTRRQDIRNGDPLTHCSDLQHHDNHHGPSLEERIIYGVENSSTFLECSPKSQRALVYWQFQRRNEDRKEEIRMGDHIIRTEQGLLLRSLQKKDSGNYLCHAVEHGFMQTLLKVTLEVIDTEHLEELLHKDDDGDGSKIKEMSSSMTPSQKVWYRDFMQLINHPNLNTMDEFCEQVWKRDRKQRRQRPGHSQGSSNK

B1: TPP-15370 (antibody, human IgG1, lambda, V domains shown)
VH: EVQLLESGGGLVQPGGSLRLSCAASGFTFSSYGMHWVRQAPGKGLEWVSAIGTGGDTYYADSVMGRFTISRDNSKNTLYLQMNSLRAEDTAVYYCARRDDYTSRDAFDVWGQGTLVTVSS
VL: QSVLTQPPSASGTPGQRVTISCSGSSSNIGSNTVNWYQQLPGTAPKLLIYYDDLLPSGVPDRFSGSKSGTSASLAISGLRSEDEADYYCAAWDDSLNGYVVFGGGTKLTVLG
notes: human IgG1; also called IgG1, hit from panning; parental mAb
B2: TPP-15374 (antibody, human IgG1, lambda, V domains shown)
VH: EVQLLESGGGLVQPGGSLRLSCAASGFTFSSYEMNWVRQAPGKGLEWVSGISWNSGSIGYADSVKGRFTISRDNSKNTLYLQMNSLRAEDTAVYYCARSGYSSSWFDPDFDYWGQGTLVTVSS
VL: QSVLTQPPSASGTPGQRVTISCTGSSSNIGAGYDVHWYQQLPGTAPKLLIYGNSNRPSGVPDRFSGSKSGTSASLAISGLRSEDEADYYCSSYAGSNPYVVFGGGTKLTVLG
notes: as for B1

How the values were obtained:
[1] = molecular target: T1, Sema3B (R&D Systems); assay: ELISA
[2] = molecular target: T2, Sema3E (R&D Systems); assay: ELISA
[3] = molecular target: T4, Human Semaphorin3A-Fc (R&D Systems), TPP-13211 (human); assay: SPR, captured IgG1, Sema3A-Fc analyte
T4 construct: R&D Systems 1250-S3; also called recombinant human Sema3A-Fc chimera
Protocol: (§1) To assess the binding kinetics and affinity of anti-Sema3A antibodies as well as their species cross-reactivity profile, binding assays were conducted using surface plasmon resonance (SPR). Binding assays were performed on a Biacore T200 instrument or on a Biacore 8K+ instrument (Cytiva) at 25° C. using assay buffer HBS P+, 300 mM NaCl, 0.75 mM CaCl₂, 2.5 mM MgCl₂, 1 mg/ml BSA, 0.05% NaN₃. Antibodies were captured either via anti-human Fc IgGs (“Human antibody capture kit”, Order No. BR100839, Cytiva) or in case of Fc-tagged analytes by anti-human Fab IgGs (“Human Fab capture kit”, Order No. 28958325, Cytiva) covalently amine coupled to a Series S CM5 sensor chip (Cytiva). The amine coupling was carried out according to the manufacturer's instructions using 1-ethyl-3-(3-dimethylaminopropyl) carbodiimide hydrochloride (EDC), N-hydroxysuccinimide (NHS) and ethanolamine HCl, pH 8.5 (“Amine Coupling Kit” BR-1000-50, Cytiva.). For phage display hits Fc-tagged human and mouse Sema3A was used as analytes in a concentration range from 1.56-200 nM. Human, mouse, cynomolgus, rat, dog and pig monovalent Sema3A domain were used as analytes in a concentration series from […] in multi cycle kinetics mode or in 100 nM for binding analysis only. The sensor surface was regenerated with glycine pH 2.0 after each antigen injection. Obtained sensorgrams were double referenced (subtraction of reference flow cell signal and buffer injection) and were fitted to a 1:1 Langmuir binding model to derive kinetic data using the Biacore T200 Evaluation software.

[4] = molecular target: T3, Mouse Semaphorin3A-Fc (R&D Systems), …; assay: SPR, captured IgG1, Sema3A-Fc analyte
Protocol: as §1

T4 sequence (chain, as listed by the source limits assumed): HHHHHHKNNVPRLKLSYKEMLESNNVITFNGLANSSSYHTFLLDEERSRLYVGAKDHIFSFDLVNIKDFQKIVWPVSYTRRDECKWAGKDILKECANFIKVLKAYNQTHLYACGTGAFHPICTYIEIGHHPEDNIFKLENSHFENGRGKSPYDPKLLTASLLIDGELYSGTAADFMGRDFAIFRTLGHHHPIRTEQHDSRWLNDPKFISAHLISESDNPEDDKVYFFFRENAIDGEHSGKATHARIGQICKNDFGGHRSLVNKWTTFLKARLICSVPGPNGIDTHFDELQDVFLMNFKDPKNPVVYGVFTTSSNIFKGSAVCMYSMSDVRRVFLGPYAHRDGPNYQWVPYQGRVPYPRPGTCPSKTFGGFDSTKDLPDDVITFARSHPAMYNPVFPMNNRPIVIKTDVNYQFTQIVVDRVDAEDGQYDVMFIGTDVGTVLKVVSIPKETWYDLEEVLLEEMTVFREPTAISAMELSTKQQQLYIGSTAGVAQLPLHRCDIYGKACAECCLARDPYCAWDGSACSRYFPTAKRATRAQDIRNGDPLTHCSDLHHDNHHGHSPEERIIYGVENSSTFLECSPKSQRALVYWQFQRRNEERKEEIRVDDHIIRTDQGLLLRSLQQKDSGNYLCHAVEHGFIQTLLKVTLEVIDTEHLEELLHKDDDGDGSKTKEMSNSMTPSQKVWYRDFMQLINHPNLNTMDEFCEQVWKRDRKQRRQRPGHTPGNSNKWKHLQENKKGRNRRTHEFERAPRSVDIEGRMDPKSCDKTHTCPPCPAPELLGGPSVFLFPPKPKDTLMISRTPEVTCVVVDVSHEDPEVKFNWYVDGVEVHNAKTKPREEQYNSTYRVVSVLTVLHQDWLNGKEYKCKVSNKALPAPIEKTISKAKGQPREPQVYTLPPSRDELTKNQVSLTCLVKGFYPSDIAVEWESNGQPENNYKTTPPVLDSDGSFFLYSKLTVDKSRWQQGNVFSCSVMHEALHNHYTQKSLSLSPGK

Binder	binding result [1]	binding result [2]	Kd [3] [nM]	Kd [4] [nM]
B1	no binding	no binding	2.8	3.2
B2	no binding	no binding	18	18
